This note sets out measurements from article PMC6049929, “Exchange of functional domains between a bacterial conjugative relaxase and the integrase of the human adeno-associated virus”.

The target in data set [1] is His-TrwC/Rep chimera (plasmid R388 / human adeno-associated virus (AAV)) (UniProt P03132). Briefly: EMSA. To be noted: EMSA: 10 mM Hepes-KOH pH 7.5, 10 mM KCl, 3.3 mM MgCl2, 1 mM EDTA, 2.5 mM DTT, 400 ng poly(dI-dC), 15 mM (Rep68) or 75 mM (chimera) NaCl, room temperature 20 min.
For data set [2] the target is unchanged. Briefly: competition. The conditions noted are these: EMSA: 10 mM Hepes-KOH pH 7.5, 10 mM KCl, 3.3 mM MgCl2, 1 mM EDTA, 2.5 mM DTT, 400 ng poly(dI-dC), 15 mM (Rep68) or 75 mM (chimera) NaCl, room temperature 20 min.
Data set [3] concerns the target TrwC/Rep chimeric protein (N-terminal relaxase domain of R388 TrwC fused to the C-terminal domain of AAV2 Rep68) (bacterial plasmid R388 (E. coli) | adeno-associated virus 2 (AAV2)) (UniProt Q47673). Description: AUC; sedimentation velocity, 20°C, 492 nm; 3.32 μM TrwC/Rep chimera with 0.83 μM 5' 6-carboxyfluorescein oriTw(34-mer) ssDNA (protein/DNA 4:1); oligomer size from the theoretical S of a globular complex.

Data set [4] addresses TrwC/Rep chimera (untagged) (plasmid R388 / human adeno-associated virus (AAV)) (UniProt P03132). Briefly: fluorescence polarization. The conditions noted are these: EMSA: 10 mM Hepes-KOH pH 7.5, 10 mM KCl, 3.3 mM MgCl2, 1 mM EDTA, 2.5 mM DTT, 400 ng poly(dI-dC), 15 mM (Rep68) or 75 mM (chimera) NaCl, room temperature 20 min. (Polarisation of emitted light reports the rotation of a fluorescent probe.)

A further data set addresses His-Rep68 (human adeno-associated virus (AAV), UniProt P03132 1-536). Briefly: EMSA; 100 ng protein, 15 mM NaCl; EMSA: 10 mM Hepes-KOH pH 7.5, 10 mM KCl, 3.3 mM MgCl2, 1 mM EDTA, 2.5 mM DTT, 400 ng poly(dI-dC), 15 mM (Rep68) or 75 mM (chimera) NaCl, room temperature 20 min; FP: 25 mM HEPES pH 7.0, 200 mM NaCl, 25 C; AUC: 25 mM Tris-HCl pH 7.9, 200 mM NaCl, 1 mM TCEP, 20 C. To be noted: protein: recombinant, tags: N-terminal His (pET15b, PreScission site). In general terms: Mobility shift assays separate free from complexed probe on a gel.

Bounds are passed on as bounds.

“GCGCACCGAAAGGTGCGTATTGTCTATAGCCCA [oriTw(25+8)]”: the figures for the binding signal in data set [1] and in data set [2] were 49 % shifted and 24 % shifted, respectively. For “TrwC/Rep chimeric protein (N-terminal relaxase domain of R388 TrwC fused to the C-terminal domain of AAV2 Rep68) (from UniProt Q47673 2-293; P03132 209-536) (enzyme)”, the stoichiometry N – broadly, a count of units in the complex or per binding partner – in data set [3] is > 6 subunits. Take “AGCGCACCGAAAGGTGCGTATTGTCTATAGCCCA [oriTw 34-mer (oriTw(25+8) plus 5' dA)]”: the equilibrium dissociation constant (Kd) – broadly, the constant that tells how readily two partners part at equilibrium – in data set [4] turned out to be 16 nM. This lies in the double-digit nanomolar range.

As for GCGCACCGAAAGGTGCGTATTGTCTATAGCCCA (ssDNA) [oriTw(25+8)], in the data set with His-Rep68 (label: 32P, inverted repeat IR2), the binding result was “no binding”.

B1: AAV ori RBSmut (dsDNA)
DNA 1: CTAGATGATGGAGTTGGCCACTCCCTCTCTCCTCCCTCCCTCCCTCACTG
DNA 2: TCGACAGTGAGGGAGGGAGGGAG
For B1, in the data set with His-Rep68 (label: 32P 5' end, top strand), the binding result is “no binding”.
